Assay [1] deals with T1, biotinylated alpha-synuclein peptide, residues 111-140 (human, biotinylated (position not given)).
T1 construct: also called syn111-140
Kind of assay: Octet biolayer interferometry, biotinylated peptide on streptavidin biosensor. (Biolayer interferometry detects binding as a change in optical thickness at a sensor tip.)

Assay [2] deals with T2, biotinylated alpha-synuclein peptide, residues 121-140 (human, biotinylated (position not given)).
T2 construct: also called syn121-140
In words: Octet biolayer interferometry; table of peptide regions bound by anti-synuclein mAbs.

Assay [3] concerns the target full-length (140 amino acid) human alpha-synuclein with C-terminal AviTag, biotinylated, his-tag removed by … (human, UniProt P37840 1-140). Kind of assay: isothermal titration calorimetry in PBS, antibody:synuclein (1:2) model; Kd only on the graph. On the procedure: FIGS. 5A-5C show affinity binding of human anti-synuclein antibodies for full-length synuclein protein as determined by isothermal titration calorimetry (ITC). […] The thermodynamic parameters and the equilibrium dissociation constants, Kd, were determined upon fitting the ITC data to a model assuming a single set of binding sites corresponding to an antibody:synuclein (1:2) binding model. Continuous lines represent the best fit of experimental data assuming a single set of binding sites. Experiments were performed in PBS. Equilibrium dissociation constants (Kd) are shown on the individual graphs.
The affinities of antibodies for full length synuclein protein were determined in solution on a MicroCal Auto-iTC200 system (Malvern Panalystical; Malvern, United Kingdom). […] The thermodynamic parameters and the equilibrium dissociation constants, Kd, were determined upon fitting the ITC data to a model assuming a single set of binding sites corresponding to an antibody:synuclein (1:2) binding model (FIG. 5).
For orientation: In ITC the heat of successive injections is recorded.

B1: human anti-alpha-synuclein antibody 323.1 (hantiAsyn-323.1) (antibody, V domains shown)
VH: EVQLLESGGGLVQPGGSLKLSCAASGFTFSASAMHWVRQTSDKRLEWVGRIRNKANNYATAYAASVKGRFTISRDDSKNTAYLQMNSLKTEDTAVYYCTRHLSLGGNSVDYWGQGTPVTVSS
VL: DVVMTQSPLSSPVTLGQPASISCRASQSPVHSDGNTYLSWLQQRPGQPPRLLIYTISNRFPGVPDRFSGSGAGTDFTLRISRVEAEDVGVYYCMQGTQFPYTFGQGTKLEIK
With B1, the binding result in assay [1], in assay [2] and in assay [3] was “binds” each time.

B2: human anti-alpha-synuclein antibody 336.1 (hantiAsyn-336.1) (antibody, V domains shown)
VH: EVQLVQSGGTLVQPGGSLRLSCAASGFTFSTYAISWVRQAPGRGLEWVSFITGDGSRILYADSVRGRFSISRDNSKNTLYLQMNSLRTDDTAMYYCVFNHYWGQGTLVTVSS
VL: AIQLTQSPDSLAVSLGERATINCKASQSLLYSSNNRNYLAWYQQKPGQPPKALIYWASTRESGVPDRFSGSGSGTDFTLTISSLQAEDVAVYYCHQYYTTHSFGQGTKLEIK
With B2, the binding result in assay [1] and in assay [3] was “binds” in each case.

The values above are taken from patent US20210347868A1 (published 2021).
